Target: AchR (Homo sapiens, UniProt P02708)
Experiment: ELISA of screened peptide phages on AchR versus streptavidin (OD450)
Type: binding
Details: absorbance at 450 nm
Method: The output phages for the 4th and 5th rounds of biopanning in Example 13-1 were inoculated to E. coli, and plated on the agar plates so as to form 100-200 plaques per plate. The plaques were inoculated on 1 ml of an SB liquid medium containing 50 μg/ml of ampicillin by using a sterile tip, and cultured with shaking at 37° C. for 5 hours, followed by the addition of 30 μl of helper phages, and then cultured at 37° C. and 200 rpm for one day. The culture was centrifuged at 12,000 rpm for 2 minutes to collect supernatant, and 2% BSA was added to the supernatant, and used for phage screening.
In a 96-well ELISA plate, 5 μg/ml AchR or streptavidin was added at 50 μl per well, and left at 4° C. overnight. The next day, the solution in each well was discarded, followed by the addition of 2% BSA, and then blocked at room temperature for 2 hours. After the solution was all discarded, the wells were washed three times with Tris (20 mM, pH7). In addition, 100 μl of each of the phage solutions obtained from the above-prepared plaques was dispensed into wells and left at 30° C. for 1 hour. After the solution in the wells was all discarded, the wells were washed three times with Tris (20 mM, pH 7), and then the HRP-conjugated anti-M13 antibody diluted 1:2,000 was added at 100 μl per well, followed by culture at 30° C. for 1 hour. After the wells were washed three times with Tris (20 mM, pH7), 100 μl of tetramethylbenzidine was added to each well to induce a color development reaction, and then the reaction was stopped by the addition of 100 μl of 1M H2SO4, and the absorbance at 450 nm (OD450) was measured. The measured absorbance was converted into a ratio of AchR absorbance to streptavidin absorbance (AchR signal/streptavidin signal), and the results are shown in FIGS. 14 to 16.

[1] = ELISA of selected 14-mer (L3) peptide phages on AchR, Spep-2 positive control
[2] = ELISA of selected 11-mer (L2) peptide phages on AchR, Spep-2 positive control
[3] = phage ELISA, 5 μg/ml AchR, 4th and 5th round biopanning phages

Chain of AchR (P02708 21-457): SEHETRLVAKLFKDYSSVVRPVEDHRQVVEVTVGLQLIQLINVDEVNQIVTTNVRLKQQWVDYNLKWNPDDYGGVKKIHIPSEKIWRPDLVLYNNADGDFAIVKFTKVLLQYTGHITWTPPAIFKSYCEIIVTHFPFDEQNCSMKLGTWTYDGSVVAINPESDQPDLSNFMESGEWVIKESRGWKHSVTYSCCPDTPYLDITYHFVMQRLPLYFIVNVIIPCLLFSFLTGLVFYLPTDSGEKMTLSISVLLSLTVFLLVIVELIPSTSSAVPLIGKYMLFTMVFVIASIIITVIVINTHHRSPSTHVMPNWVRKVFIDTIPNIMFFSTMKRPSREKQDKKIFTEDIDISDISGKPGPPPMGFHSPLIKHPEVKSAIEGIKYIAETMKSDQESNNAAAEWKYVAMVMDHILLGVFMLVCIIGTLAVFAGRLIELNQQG

| Substance | OD [1] | OD [2] | OD [3] |
| --- | --- | --- | --- |
| L3-61 (THDKCKKHNDKQAH; AchR binding peptide) [Peptide L3-61] | 0.768 | – | – |
| L3-196 (IEMRYRRDCSRFVN; AchR binding peptide) [Peptide L3-196] | 0.746 | – | – |
| L3-66 (YISKSKKTAGRWFW; AchR binding peptide) [Peptide L3-66] | 0.738 | – | – |
| L2-90 (TSVKKRKQRLR; AchR binding peptide) [Peptide L2-90] | – | 0.765 | – |
| L3-51 (NHHKTKRCSVRFNI; AchR binding peptide) [Peptide L3-51] | 0.754 | – | – |
| L3-60 (EDLRCKKLELRSVI; AchR binding peptide) [Peptide L3-60] | 0.574 | – | – |
| GGRKKRRQRRRGGG [Peptide L3-202, reference compound] | – | – | 0.301 |
| L3-132 (TITRVKRASHKTPS; AchR binding peptide) [Peptide L3-132] | 0.619 | – | – |
| KTKKAAER [Peptide L1-178] | – | – | 0.625 |
| L2-112 (CFFKMRRCNTK; AchR binding peptide) [Peptide L2-112] | – | 0.646 | – |
| L3-10 (AHGKDRRYVEKLEV; AchR binding peptide) [Peptide L3-10] | 0.769 | – | – |
| L2-88 (NAMRTKRMSFK; AchR binding peptide) [Peptide L2-88] | – | 0.744 | – |
| RPKRNWAK [Peptide L1-96] | – | – | 0.494 |
| L2-180 (DPEKWRKFYDR; AchR binding peptide) [Peptide L2-180] | – | 0.744 | – |
| KMRKFYSK [Peptide L1-189] | – | – | 0.616 |
| KVKRVWGR [Peptide L1-163] | – | – | 0.618 |
| KKRKSLLR [Peptide L1-159] | – | – | 0.593 |
| L2-127 (YIIRWKRQMTR; AchR binding peptide) [Peptide L2-127] | – | 0.569 | – |
| L2-155 (NEARIKKCDVK; AchR binding peptide) [Peptide L2-155] | – | 0.742 | – |
| KCRKTMGR [Peptide L1-123] | – | – | 0.409 |
| L2-186 (PNWKVRRFGDK; AchR binding peptide) [Peptide L2-186] | – | 0.683 | – |
| L3-14 (FPGKSKKQWHRLWP; AchR binding peptide) [Peptide L3-14] | 0.892 | – | – |

| Substance | OD [1] | OD [2] | OD [3] |
| --- | --- | --- | --- |
| L2-119 (FCRRSKKIGRR; AchR binding peptide) [Peptide L2-119] | – | 0.56 | – |
| L3-59 (HVYKNRRVWGKGWP; AchR binding peptide) [Peptide L3-59] | 0.659 | – | – |
| L3-193 (AAYRARKIVEKSGW; AchR binding peptide) [Peptide L3-193] | 0.755 | – | – |
| L3-138 (TNQRPRRETAKTIE; AchR binding peptide) [Peptide L3-138] | 0.576 | – | – |
| L2-164 (VPTKMKKYETK; AchR binding peptide) [Peptide L2-164] | – | 0.733 | – |
| L3-139 (FHHRHKRIATKHPA; AchR binding peptide) [Peptide L3-139] | 0.49 | – | – |
| KERKGAVR [Peptide L1-100] | – | – | 0.737 |
| L2-20 (SWQKCKKAEVR; AchR binding peptide) [Peptide L2-20] | – | 0.675 | – |
| L2-187 (TAAKWKKIIMK; AchR binding peptide) [Peptide L2-187] | – | 0.731 | – |
| L2-124 (NVVRGRRLECR; AchR binding peptide) [Peptide L2-124] | – | 0.556 | – |
| RHRRANFR [Peptide L1-147] | – | – | 0.415 |
| L2-178 (VPYRHRRMQFK; AchR binding peptide) [Peptide L2-178] | – | 0.718 | – |
| L2-117 (DNGKIRRCLGK; AchR binding peptide) [Peptide L2-117] | – | 0.607 | – |
| L3-178 (PDLKFRKHQDRTAI; AchR binding peptide) [Peptide L3-178] | 0.755 | – | – |
| L2-14 (GMWKVRKTVFR; AchR binding peptide) [Peptide L2-14] | – | 0.746 | – |
| L3-182 (FYLRERRHQLKTEF; AchR binding peptide) [Peptide L3-182] | 0.818 | – | – |
| L3-72 (TGCRCKRSMYKNLH; AchR binding peptide) [Peptide L3-72] | 0.746 | – | – |
| KARRVGTK [Peptide L1-143] | – | – | 0.416 |
| L2-70 (QLLKMRKALSR; AchR binding peptide) [Peptide L2-70] | – | 0.67 | – |
| L3-71 (PLIKVKRGVGKLWN; AchR binding peptide) [Peptide L3-71] | 0.78 | – | – |
| L2-196 (QNMRMKRFIQR; AchR binding peptide) [Peptide L2-196] | – | 0.574 | – |
| L2-37 (TLWKVRKAYSR; AchR binding peptide) [Peptide L2-37] | – | 0.66 | – |

| Substance | OD [1] | OD [2] | OD [3] |
| --- | --- | --- | --- |
| L2-120 (PAARTKRMYGR; AchR binding peptide) [Peptide L2-120] | – | 0.607 | – |
| RAKRMCCK [Peptide L1-8] | – | – | 0.653 |
| L2-160 (ADIRMKKWYPK; AchR binding peptide) [Peptide L2-160] | – | 0.721 | – |
| L2-12 (AYAKARRWGQK; AchR binding peptide) [Peptide L2-12] | – | 0.83 | – |
| RPRRTHIK [Peptide L1-6] | – | – | 0.652 |
| L3-149 (PFGKFKRLENKDEC; AchR binding peptide) [Peptide L3-149] | 0.571 | – | – |
| RFRRGVRR [Peptide L1-13] | – | – | 0.73 |
| L2-167 (MFMRNKKLAWR; AchR binding peptide) [Peptide L2-167] | – | 0.584 | – |
| L2-77 (VADRQKKTAPK; AchR binding peptide) [Peptide L2-77] | – | 0.733 | – |
| L2-82 (PDTRWKRVLFK; AchR binding peptide) [Peptide L2-82] | – | 0.693 | – |
| L2-103 (QYNKGRKIHVR; AchR binding peptide) [Peptide L2-103] | – | 0.571 | – |
| RCRKDTAR [Peptide L1-142] | – | – | 0.469 |
| L3-8 (PICRWKRAPFKWYF; AchR binding peptide) [Peptide L3-8] | 0.777 | – | – |
| L3-77 (VLIKQRKWQDRSCS; AchR binding peptide) [Peptide L3-77] | 0.688 | – | – |
| L2-50 (SADRNKRHMTR; AchR binding peptide) [Peptide L2-50] | – | 0.656 | – |
| L3-166 (EYVKAKRTPWKYVV; AchR binding peptide) [Peptide L3-166] | 0.629 | – | – |
| KVKRLWNR [Peptide L1-110] | – | – | 0.422 |
| KWRRELPR [Peptide L1-182] | – | – | 0.585 |
| RGKKQLSK [Peptide L1-121] | – | – | 0.354 |
| L2-16 (VDVRNKKSNNR; AchR binding peptide) [Peptide L2-16] | – | 0.77 | – |
| RDRKNPVR [Peptide L1-124] | – | – | 0.428 |
| L3-49 (VAFKTRRRVQRQSG; AchR binding peptide) [Peptide L3-49] | 0.629 | – | – |

| Substance | OD [1] | OD [2] | OD [3] |
| --- | --- | --- | --- |
| L3-87 (FLEKCRKFIIRVST; AchR binding peptide) [Peptide L3-87] | 0.743 | – | – |
| L3-174 (SSGKWKRPHAKYIV; AchR binding peptide) [Peptide L3-174] | 0.783 | – | – |
| L2-13 (GGLKSKRLTTR; AchR binding peptide) [Peptide L2-13] | – | 0.855 | – |
| KSRKWGWR [Peptide L1-39] | – | – | 0.509 |
| L2-111 (GYFRPRKETCK; AchR binding peptide) [Peptide L2-111] | – | 0.594 | – |
| KIKKYYWK [Peptide L1-129] | – | – | 0.421 |
| L3-179 (YNARVKREGIKNIT; AchR binding peptide) [Peptide L3-179] | 0.743 | – | – |
| KWRKRRIK [Peptide L1-46] | – | – | 0.637 |
| RPRRSLDR [Peptide L1-17] | – | – | 0.653 |
| RLKRAPGR [Peptide L1-33] | – | – | 0.529 |
| L2-193 (PALRMRRWCQK; AchR binding peptide) [Peptide L2-193] | – | 0.705 | – |
| KARKQEVR [Peptide L1-188] | – | – | 0.618 |
| L3-186 (YEHRHKRFFHKDMP; AchR binding peptide) [Peptide L3-186] | 0.799 | – | – |
| L3-30 (WAHKCKKPGQRIPP; AchR binding peptide) [Peptide L3-30] | 0.771 | – | – |
| L3-76 (QMGKFKKISLKNTF; AchR binding peptide) [Peptide L3-76] | 0.701 | – | – |
| L2-134 (VWNKVKRWLER; AchR binding peptide) [Peptide L2-134] | – | 0.44 | – |
| RGRKKCGK [Peptide L1-42] | – | – | 0.695 |
| L2-94 (NPGKTKRWLQR; AchR binding peptide) [Peptide L2-94] | – | 0.642 | – |
| L3-23 (QYHKVRKLWFRVEP; AchR binding peptide) [Peptide L3-23] | 0.799 | – | – |
| KWKRFSQR [Peptide L1-197] | – | – | 0.631 |

Reference: patent publication US20260000597A1 (priority 2018, published 2026)
